Article PMC7889885

T1: human NKCC1 (hNKCC1a, SLC12A2), twin-Strep tagged, as prepared for cryo-EM (human), P55011
T1 chain: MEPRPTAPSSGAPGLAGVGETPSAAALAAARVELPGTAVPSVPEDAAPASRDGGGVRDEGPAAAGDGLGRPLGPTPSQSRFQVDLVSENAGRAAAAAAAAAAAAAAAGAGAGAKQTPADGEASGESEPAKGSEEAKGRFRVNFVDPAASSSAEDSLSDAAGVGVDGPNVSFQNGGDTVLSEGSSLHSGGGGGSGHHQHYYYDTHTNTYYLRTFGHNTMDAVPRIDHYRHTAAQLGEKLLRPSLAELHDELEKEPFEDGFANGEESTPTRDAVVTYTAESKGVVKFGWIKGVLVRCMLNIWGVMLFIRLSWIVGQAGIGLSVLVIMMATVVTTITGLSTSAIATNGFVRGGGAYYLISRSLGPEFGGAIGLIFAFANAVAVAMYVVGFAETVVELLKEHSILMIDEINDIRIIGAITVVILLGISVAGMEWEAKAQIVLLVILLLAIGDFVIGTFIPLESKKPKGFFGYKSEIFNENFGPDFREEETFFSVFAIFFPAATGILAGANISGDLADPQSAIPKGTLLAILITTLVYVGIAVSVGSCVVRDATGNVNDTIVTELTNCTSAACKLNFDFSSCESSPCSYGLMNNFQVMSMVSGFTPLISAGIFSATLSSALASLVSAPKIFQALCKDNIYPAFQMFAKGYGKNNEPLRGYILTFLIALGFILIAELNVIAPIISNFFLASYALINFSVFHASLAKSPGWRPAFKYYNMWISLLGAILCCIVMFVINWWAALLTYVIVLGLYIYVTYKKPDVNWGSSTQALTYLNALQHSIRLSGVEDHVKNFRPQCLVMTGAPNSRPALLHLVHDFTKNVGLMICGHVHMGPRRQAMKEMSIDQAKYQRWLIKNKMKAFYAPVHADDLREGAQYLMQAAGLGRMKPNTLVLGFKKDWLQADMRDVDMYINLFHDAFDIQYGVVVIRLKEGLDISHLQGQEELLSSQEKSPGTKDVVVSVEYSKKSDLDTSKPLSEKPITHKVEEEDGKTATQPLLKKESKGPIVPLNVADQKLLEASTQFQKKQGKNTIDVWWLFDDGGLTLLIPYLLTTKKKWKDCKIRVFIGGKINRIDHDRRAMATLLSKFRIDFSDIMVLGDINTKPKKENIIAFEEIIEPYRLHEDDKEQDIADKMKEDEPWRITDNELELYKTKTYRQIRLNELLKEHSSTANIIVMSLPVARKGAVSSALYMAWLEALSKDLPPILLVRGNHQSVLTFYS

T2: mouse KCC2 (mKCC2a, SLC12A5), twin-Strep tagged, as prepared for cryo-EM (mouse), Q91V14
T2 chain: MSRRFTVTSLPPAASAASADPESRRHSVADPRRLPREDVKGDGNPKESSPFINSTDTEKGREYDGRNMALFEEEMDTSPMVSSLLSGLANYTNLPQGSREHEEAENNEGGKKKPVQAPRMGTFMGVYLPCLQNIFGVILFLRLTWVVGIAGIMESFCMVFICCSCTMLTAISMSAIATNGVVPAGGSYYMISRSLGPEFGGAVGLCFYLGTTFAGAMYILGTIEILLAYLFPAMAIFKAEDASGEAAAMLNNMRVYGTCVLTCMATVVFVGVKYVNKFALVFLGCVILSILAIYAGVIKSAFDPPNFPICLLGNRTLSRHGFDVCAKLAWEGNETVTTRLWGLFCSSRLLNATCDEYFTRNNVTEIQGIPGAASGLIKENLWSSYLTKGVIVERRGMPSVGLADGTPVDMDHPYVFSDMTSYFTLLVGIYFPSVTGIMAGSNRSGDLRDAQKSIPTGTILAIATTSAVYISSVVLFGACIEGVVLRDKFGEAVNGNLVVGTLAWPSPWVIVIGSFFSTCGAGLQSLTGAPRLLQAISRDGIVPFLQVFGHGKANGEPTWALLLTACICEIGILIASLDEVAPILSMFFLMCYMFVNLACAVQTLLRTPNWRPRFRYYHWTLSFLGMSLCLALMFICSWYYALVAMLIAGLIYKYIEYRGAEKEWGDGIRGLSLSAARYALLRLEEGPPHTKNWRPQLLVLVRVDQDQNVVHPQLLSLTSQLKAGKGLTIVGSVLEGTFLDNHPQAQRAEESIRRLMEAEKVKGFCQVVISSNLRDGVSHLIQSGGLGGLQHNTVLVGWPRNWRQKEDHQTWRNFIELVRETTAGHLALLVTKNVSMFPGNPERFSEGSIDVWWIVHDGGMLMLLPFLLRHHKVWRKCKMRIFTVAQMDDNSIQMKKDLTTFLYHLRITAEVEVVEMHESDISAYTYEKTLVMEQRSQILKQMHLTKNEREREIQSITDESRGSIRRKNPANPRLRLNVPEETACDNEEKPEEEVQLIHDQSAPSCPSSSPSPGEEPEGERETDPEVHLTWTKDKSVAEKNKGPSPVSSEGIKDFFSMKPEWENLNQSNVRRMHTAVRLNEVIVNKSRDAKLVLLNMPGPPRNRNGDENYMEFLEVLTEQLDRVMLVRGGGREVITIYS

B1: human NKCC1 (hNKCC1a, SLC12A2), twin-Strep tagged, as prepared for cryo-EM, P55011 1-1212 (natural protein)
chain: T1 chain
B2: mouse KCC2 (mKCC2a, SLC12A5), twin-Strep tagged, as prepared for cryo-EM, Q91V14 1-1138 (natural protein)
chain: T2 chain
modifications: here or on the partner: phosphorylation at T929 and T1029 (confirmed by mass spectrometry); phosphorylation at T929 and T1029 (confirmed by mass spectrometry)

What was measured:
[1] = biological target: T1, human NKCC1 (hNKCC1a, SLC12A2), …; assay: cryo-EM structure; single-particle cryo-EM of the purified transporter in 20 mM HEPES pH 7.4, 150 mM NaCl, 0.1% digitonin, ~10 mg/ml; C2 symmetry imposed; details: remark: other sources report otherwise
[2] = biological target: T2, mouse KCC2 (mKCC2a, SLC12A5), …; assay: as above; details: remark: other sources report otherwise

Row | Binder | stoichiometry N [1] | stoichiometry N [2]
1 | B1 | 2 | –
2 | B2 | – | 2
